# Data as given in US20210403514A1 (NATIONAL INSTITUTE FOR BIOTECHNOLOGY IN THE NEGEV, published 2021).
# Changes are numbered by the printed parent chain. In names and notes the source's numbering stands.
# T1: murine c-FMS on bone marrow derived monocytes (BMMs) (mouse, UniProt P09581 20-977)
# T1 sequence (looked up): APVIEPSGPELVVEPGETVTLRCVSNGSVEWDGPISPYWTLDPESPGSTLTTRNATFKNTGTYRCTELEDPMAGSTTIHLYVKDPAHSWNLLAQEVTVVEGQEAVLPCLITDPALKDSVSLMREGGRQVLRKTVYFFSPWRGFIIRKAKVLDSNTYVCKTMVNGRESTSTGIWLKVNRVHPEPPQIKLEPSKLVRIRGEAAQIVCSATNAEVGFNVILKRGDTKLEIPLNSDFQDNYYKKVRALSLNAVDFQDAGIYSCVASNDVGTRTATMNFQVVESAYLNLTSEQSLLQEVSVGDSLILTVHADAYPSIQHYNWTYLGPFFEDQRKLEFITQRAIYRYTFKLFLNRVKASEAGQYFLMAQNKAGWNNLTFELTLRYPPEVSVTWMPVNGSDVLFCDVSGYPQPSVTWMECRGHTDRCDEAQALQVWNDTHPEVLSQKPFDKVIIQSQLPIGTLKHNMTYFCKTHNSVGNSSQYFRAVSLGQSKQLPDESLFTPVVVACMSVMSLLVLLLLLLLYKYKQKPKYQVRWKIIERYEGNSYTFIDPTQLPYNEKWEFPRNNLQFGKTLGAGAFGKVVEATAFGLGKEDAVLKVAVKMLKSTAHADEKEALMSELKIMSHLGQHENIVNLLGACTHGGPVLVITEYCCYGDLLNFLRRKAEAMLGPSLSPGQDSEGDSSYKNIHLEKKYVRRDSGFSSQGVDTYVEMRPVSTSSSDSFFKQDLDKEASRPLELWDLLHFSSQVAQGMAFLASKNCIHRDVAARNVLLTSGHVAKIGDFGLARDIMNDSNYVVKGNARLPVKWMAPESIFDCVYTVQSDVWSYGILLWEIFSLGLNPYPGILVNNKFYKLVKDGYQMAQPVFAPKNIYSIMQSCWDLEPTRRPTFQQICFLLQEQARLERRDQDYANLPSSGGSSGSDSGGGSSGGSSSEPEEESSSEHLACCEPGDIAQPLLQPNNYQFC
# B1: M-CSFRGD variant 4.24, purified soluble, non-glycosylated (designed binder)
# chain: EEVSEYCSHMIGSGHLQSLQRLIDSQMETSSQITFEFVDQEQLKDPVCYLKKAFLLVQDIMEDEPVRGDNINPNAIAIVQLQELSLRLKSCFTKDYEEHDKACVRTFYETPLQLLEKVKNVFNETKNLLDKDWNIFSKNCNNSFAECSSQGHERQSEGS
# modifications: N-glycans removed with Endo HF (non-glycosylated)
# notes: not shown: FLAG tag at the N-terminus of the cloning site (pPIC9K); 6xHis tag at the C-terminus of the cloning site
# B2: human wild-type M-CSF (M-CSFWT) (ligand)
# chain: EEVSEYCSHMIGSGHLQSLQRLIDSQMETSCQITFEFVDQEQLKDPVCYLKKAFLLVQDIMEDTMRFRDNTPNAIAIVQLQELSLRLKSCFTKDYEEHDKACVRTFYETPLQLLEKVKNVFNETKNLLDKDWNIFSKNCNNSFAECSSQGHERQSEGS
# notes: also called human M-CSFWT
# B3: M-CSFM displayed on the yeast surface (YSD M-CSFM) (ligand)
# chain: B2 chain with C31S
# notes: also called M-CSF monomer; not shown: yeast surface display fusion partner (pCTCON construct on the S. cerevisiae cell wall, with c-myc tag)
# B4: M-CSFM, purified soluble, non-glycosylated (M-CSFC31S) (ligand)
# chain: B2 chain with C31S
# modifications: N-glycans removed with Endo HF (non-glycosylated)
# notes: Expressed in Pichia pastoris GS115; Forms non-covalent dimers; also called non-glycosylated M-CSFM; M-CSF monomer; not shown: FLAG tag at the N-terminus of the cloning site (pPIC9K); 6xHis tag at the C-terminus of the cloning site
# B5: M-CSFC31S,M27R (designed binder)
# chain: B2 chain with M27R, C31S
# notes: monomer; Purified from Pichia pastoris GS115; also called M-CSFM,M27R; M-CSF double mutant
# B6: glycosylated M-CSFM, purified soluble (ligand)
# chain: B2 chain with C31S
# modifications: N-glycosylated (two glycosylation sites in positions 122 and 140)
# notes: Pichia pastoris product without Endo HF treatment; not shown: FLAG tag at the N-terminus of the cloning site (pPIC9K); 6xHis tag at the C-terminus of the cloning site
# B7: M-CSFRGD variant 4.22, purified soluble, non-glycosylated (designed binder)
# chain: EEVSEYCSHMIGSGHLQSLQRLIDQTSRGDSPSITFEFVDQEQLKDPVCYLKKAFLLVQDIMEDTMRFRDNTPNAIAIVQLQELSLRLKSCFTKDYEEHDKACVRTFYETPLQLLEKVKNVFNETKNLLDKDWNIFSKNCNNSFAECSSQGHERQSEGS
# modifications: N-glycans removed with Endo HF (non-glycosylated). Labelled with DyLight 488 NHS ester on amines for the cell binding assays. Amine-coupled to the chip for SPR.
# notes: Pichia pastoris product; 21.7 kDa by MS; not shown: N-terminal FLAG tag, C-terminal 6xHis tag and the vector junction residues (pPIC9K cloning site)
# B8: M-CSFαvβ3 (variant 4.22 with histidine to alanine in positions 9 and 15), purified soluble (designed binder, not shown: small tags and cut ends)
# chain: B7 chain with H9A, H15A
# modifications: Expressed in Pichia with an N-terminal FLAG tag and a C-terminal 6xHis tag, neither of which is in the letters. N-glycans were removed with Endo HF.
# B9: M-CSFRGD variant 5.6, purified soluble, non-glycosylated (designed binder)
# chain: B7 chain with Q25T, T26Y, S27P, S31M, P32C
# modifications: N-glycans removed with Endo HF (non-glycosylated). Labelled with DyLight 488 NHS ester on amines for the cell binding assays. Amine-coupled to the chip for SPR.
# notes: Pichia pastoris product; 22 kDa by MS; also called M-CSFRGD 5.6; M-CSF5.6; not shown: N-terminal FLAG tag, C-terminal 6xHis tag and the vector junction residues (pPIC9K cloning site)
# What was measured:
# [1] = biological target: T2, soluble human c-FMS receptor (extracellular domains, residues Met1-Glu512) (Sino Biological) (human, UniProt P07333 20-512); assay: SPR (ProteOn XPR36), variant immobilised, c-FMS 0-200 nM as analyte, equilibrium
# T2 construct: range 1-512; Analyte in both SPR experiments; The printed range starts at Met1, so it includes the signal peptide; also called human c-FMS soluble proteins
# [2] = biological target: T3, integrin α3β1 (human, UniProt P26006 33-991; P05556 21-728, limits assumed); assay: SPR (ProteOn XPR36); α3β1 integrin immobilized, variant flowed at 1 µM
# T3 construct: Immobilised on the SPR chip
# [3] = biological target: T4, integrin α4β7 (human, UniProt P13612 34-977; P26010 20-723, limits assumed); assay: SPR (ProteOn XPR36); α4β7 integrin immobilized, variant flowed at 1 µM
# T4 construct: Immobilised on the SPR chip
# [4] = biological target: T5, integrin α5β1 (human, UniProt P08648 42-995; P05556 21-728, limits assumed); assay: SPR (ProteOn XPR36); α5β1 integrin immobilized, variant flowed at 1 µM
# T5 construct: Immobilised on the SPR chip
# [5] = biological target: T6, soluble human αvβ3 integrin (human, UniProt P06756 31-992; P05106 27-718); assay: SPR (ProteOn XPR36), variant immobilised, αvβ3 integrin 0-200 nM as analyte, equilibrium
# T6 construct: R&D Systems for yeast display; also called integrin αvβ3; recombinant αvβ3 integrin
# [6] = biological target: the molecule itself; assay: BS3 chemical crosslinking, denaturing SDS-PAGE, Coomassie stain; self-association (homodimer)
# [7] = biological target: T2, soluble human c-FMS receptor …; assay: SPR (ProteOn XPR36), M-CSF protein immobilised, c-FMS (Met1-Glu512) 4.375-70 nM as analyte, equilibrium, N=3
# [8] = biological target: the molecule itself; assay: SAXS, radius of gyration against protein concentration; oligomeric state (homodimer) in solution
# [9] = biological target: T7, soluble Fc conjugated human c-FMS (R&D systems) (human, UniProt P07333 20-512); assay: yeast surface display, flow cytometry; soluble c-FMS-Fc titrated from 0.5 to 2000 nM
# T7 construct: Bought reagent; Used in all yeast display experiments; also called c-FMS-Fc; c-FMS-Fc recombinant protein; not shown: Fc (detected with goat anti human Fc)
# [10] = biological target: T7, soluble Fc conjugated human c-FMS (R&D …); assay: yeast surface display flow cytometry; displayed M-CSFM titrated with c-FMS-Fc (0.5 nM to 2000 nM); apparent KD
# [11] = biological target: T1, murine c-FMS on bone marrow derived …; assay: cell-based or functional assay
# [12] = biological target: T2, soluble human c-FMS receptor …; assay: SPR (ProteOn XPR36), M-CSF protein immobilised, c-FMS 0-200 nM as analyte, equilibrium
# [13] = biological target: the molecule itself; assay: BS3 chemical crosslinking, SDS-PAGE, InstantBlue stain; self-association (homodimer)
# [14] = biological target: T6, soluble human αvβ3 integrin; assay: SPR (ProteOn XPR36); variant immobilized by amine coupling, soluble αvβ3 integrin flowed at 12.5 to 200 nM; panel assigned to M-CSFM although the legend prints '9A and 9E'
# [15] = biological target: T2, soluble human c-FMS receptor …; assay: SPR (ProteOn XPR36), M-CSF protein immobilised, c-FMS (Met1-Glu512) as analyte, equilibrium, N=3
# [16] = biological target: the molecule itself; assay: BS3 chemical crosslinking, denaturing SDS-PAGE, Coomassie stain; self-association (homodimer); remark: listed apart in the source
# [17] = biological target: T6, soluble human αvβ3 integrin; assay: SPR (ProteOn XPR36), M-CSFαvβ3 immobilised, αvβ3 integrin 0-200 nM as analyte, equilibrium
# T6 sequence (P06756 31-992 limits assumed, chain 1 of 2): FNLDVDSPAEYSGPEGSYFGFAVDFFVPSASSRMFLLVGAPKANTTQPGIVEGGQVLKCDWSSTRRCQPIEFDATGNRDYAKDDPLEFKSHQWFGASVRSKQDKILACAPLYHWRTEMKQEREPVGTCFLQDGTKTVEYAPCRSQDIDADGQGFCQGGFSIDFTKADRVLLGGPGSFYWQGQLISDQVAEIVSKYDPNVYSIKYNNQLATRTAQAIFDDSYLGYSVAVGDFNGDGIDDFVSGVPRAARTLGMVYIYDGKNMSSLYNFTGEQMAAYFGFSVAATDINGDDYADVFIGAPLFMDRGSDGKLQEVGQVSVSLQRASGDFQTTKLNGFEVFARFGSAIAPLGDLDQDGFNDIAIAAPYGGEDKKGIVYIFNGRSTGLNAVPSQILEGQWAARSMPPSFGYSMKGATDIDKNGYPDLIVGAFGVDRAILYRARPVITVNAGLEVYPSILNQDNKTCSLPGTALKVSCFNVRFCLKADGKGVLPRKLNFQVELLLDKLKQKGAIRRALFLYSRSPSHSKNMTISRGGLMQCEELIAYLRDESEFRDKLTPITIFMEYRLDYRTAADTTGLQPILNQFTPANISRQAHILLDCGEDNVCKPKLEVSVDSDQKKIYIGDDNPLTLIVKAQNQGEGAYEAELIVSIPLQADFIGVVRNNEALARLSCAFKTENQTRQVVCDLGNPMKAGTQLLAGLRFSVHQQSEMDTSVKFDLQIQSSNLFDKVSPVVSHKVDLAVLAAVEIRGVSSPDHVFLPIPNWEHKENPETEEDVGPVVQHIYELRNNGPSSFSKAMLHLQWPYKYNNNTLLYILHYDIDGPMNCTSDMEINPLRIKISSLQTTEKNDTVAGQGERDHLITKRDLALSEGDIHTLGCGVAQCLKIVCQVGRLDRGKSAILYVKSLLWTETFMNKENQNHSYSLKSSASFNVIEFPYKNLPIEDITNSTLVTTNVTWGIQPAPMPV
# T6 sequence (P05106 27-718 limits assumed, chain 2 of 2): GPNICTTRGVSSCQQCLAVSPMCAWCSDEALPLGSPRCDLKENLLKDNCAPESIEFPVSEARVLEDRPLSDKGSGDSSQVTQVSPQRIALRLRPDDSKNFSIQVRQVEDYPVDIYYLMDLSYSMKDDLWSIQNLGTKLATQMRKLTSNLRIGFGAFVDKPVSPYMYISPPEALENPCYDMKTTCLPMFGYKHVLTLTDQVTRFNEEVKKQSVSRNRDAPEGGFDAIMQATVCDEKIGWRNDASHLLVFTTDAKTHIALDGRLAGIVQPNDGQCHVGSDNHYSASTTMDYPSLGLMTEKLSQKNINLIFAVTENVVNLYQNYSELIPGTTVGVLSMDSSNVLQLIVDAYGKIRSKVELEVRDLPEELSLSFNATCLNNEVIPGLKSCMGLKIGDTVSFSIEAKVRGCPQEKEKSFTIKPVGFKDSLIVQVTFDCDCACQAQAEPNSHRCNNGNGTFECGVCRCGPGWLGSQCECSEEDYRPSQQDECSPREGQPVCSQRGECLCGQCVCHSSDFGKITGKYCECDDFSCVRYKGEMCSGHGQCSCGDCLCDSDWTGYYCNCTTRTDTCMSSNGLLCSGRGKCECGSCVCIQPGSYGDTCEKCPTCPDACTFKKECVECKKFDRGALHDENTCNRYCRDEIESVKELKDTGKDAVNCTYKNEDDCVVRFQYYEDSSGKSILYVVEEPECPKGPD
# T2 sequence (P07333 20-512 limits assumed): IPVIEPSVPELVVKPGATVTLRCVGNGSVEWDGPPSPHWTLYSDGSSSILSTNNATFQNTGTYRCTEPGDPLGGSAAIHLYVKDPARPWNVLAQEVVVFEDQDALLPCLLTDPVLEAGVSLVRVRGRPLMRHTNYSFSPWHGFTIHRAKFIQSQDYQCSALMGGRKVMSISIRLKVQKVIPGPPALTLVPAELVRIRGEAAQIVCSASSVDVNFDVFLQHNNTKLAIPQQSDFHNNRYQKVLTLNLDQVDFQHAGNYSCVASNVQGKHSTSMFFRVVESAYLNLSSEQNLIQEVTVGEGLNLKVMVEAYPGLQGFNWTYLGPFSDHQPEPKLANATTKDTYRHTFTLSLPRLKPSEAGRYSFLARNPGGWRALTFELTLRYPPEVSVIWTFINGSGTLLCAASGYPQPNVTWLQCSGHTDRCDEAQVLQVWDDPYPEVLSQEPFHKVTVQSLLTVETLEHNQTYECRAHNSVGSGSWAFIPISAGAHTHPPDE
# T4 sequence (P13612 34-977 limits assumed, chain 1 of 2): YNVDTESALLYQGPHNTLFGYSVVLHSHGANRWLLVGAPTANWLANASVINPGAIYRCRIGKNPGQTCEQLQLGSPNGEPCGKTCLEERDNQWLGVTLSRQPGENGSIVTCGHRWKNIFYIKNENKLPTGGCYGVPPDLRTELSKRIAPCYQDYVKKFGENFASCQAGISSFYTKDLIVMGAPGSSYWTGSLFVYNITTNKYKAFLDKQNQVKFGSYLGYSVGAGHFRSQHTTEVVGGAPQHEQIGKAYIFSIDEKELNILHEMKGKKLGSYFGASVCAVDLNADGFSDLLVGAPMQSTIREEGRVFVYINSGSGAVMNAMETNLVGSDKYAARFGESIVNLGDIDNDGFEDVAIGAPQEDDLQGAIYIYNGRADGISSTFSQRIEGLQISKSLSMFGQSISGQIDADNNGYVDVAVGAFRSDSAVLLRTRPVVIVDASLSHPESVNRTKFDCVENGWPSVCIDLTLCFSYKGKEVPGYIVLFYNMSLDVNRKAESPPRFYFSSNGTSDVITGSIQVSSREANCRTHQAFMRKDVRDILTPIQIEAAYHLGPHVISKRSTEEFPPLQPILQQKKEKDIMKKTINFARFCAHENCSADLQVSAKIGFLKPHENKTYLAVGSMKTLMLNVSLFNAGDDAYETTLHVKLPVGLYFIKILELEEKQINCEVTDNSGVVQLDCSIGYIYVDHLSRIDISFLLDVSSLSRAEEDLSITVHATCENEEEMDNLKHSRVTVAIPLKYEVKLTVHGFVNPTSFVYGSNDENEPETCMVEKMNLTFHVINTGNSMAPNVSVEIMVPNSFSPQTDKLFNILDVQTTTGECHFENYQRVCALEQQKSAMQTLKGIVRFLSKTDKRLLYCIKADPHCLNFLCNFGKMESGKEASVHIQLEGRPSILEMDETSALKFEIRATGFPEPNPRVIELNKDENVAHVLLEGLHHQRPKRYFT
# T4 sequence (P26010 20-723 limits assumed, chain 2 of 2): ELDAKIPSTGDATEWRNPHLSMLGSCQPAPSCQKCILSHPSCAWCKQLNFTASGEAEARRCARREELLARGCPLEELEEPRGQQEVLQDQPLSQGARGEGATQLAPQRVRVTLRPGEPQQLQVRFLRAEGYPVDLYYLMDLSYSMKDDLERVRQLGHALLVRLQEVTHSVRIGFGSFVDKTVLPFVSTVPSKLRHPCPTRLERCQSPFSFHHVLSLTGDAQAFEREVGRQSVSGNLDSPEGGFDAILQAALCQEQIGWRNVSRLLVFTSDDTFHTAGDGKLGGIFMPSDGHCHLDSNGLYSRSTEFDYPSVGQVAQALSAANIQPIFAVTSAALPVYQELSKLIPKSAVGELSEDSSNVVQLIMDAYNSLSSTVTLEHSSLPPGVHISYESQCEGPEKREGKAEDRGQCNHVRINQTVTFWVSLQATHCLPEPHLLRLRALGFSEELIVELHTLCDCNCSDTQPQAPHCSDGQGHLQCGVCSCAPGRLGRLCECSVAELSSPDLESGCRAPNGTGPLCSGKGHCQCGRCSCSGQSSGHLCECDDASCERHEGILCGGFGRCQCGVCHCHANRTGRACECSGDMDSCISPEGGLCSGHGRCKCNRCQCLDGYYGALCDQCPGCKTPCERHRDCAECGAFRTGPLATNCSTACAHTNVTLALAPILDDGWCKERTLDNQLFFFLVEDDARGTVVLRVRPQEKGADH
# T7 sequence (P07333 20-512 limits assumed): as the sequence (P07333 20-512 limits assumed) above
binder,measurement,setting,value
B1,Kd,[1],219 nM
same,binding result,[2],no binding (tested: 1 µM)
same,binding result,[3],no binding (tested: 1 µM)
same,binding result,[4],no binding (tested: 1 µM)
same,Kd,[5],108 nM
same,binding result,[6],no binding
B2,Kd,[7],25.1 nM
same,binding result,[8],binds
B3,EC50 (read off the curve),[9],~20 nM
same,Kd,[10],20 nM
B4,"c-FMS phosphorylation at the peak concentration, fold against M-CSFWT",[11],10 fold
same,"c-FMS phosphorylation at the peak concentration, fold against the positive control (0.5 nM murine M-CSF)",[11],40 fold
same,Kd,[12],31.6 nM
same,binding result,[13],binds
same,binding result,[14],no binding (tested: 200 nM)
B5,Kd,[15],61.5 nM
same,binding result,[13],no binding
B6,Kd,[12],42.6 nM
B7,Kd,[1],152 nM
same,binding result,[2],no binding (tested: 1 µM)
same,binding result,[3],no binding (tested: 1 µM)
same,binding result,[4],no binding (tested: 1 µM)
same,Kd,[5],199 nM
same,binding result,[16],no binding
B8,Kd,[17],231 nM
B9,Kd,[1],96 nM
same,binding result,[2],no binding (tested: 1 µM)
same,binding result,[3],no binding (tested: 1 µM)
same,binding result,[4],no binding (tested: 1 µM)
same,Kd,[5],245 nM
same,binding result,[6],no binding
